Consider one molecule from patent US12649778.

The target of this assay is Peptide 1593 (…) (Mycobacterium tuberculosis). Briefly: SPR (Biacore), IgG amine-coupled, peptide as analyte.

B1: 65D3 mutant IgG variant 2 (S55W-VH + S57T-VL) (antibody)
heavy: QSLEESGGRLVTPGGSLTLTCTVSGFSLSTHDISWVRQAPGKGLEWIGVIARRGWTYYASWAKGRFTISKTSTTVDLKITSPTIEDTATYFCAREEFDFWGQGTLVTVSSGQPKAPSVFPLAPCCGDTPSSTVTLGCLVKGYLPEPVTVTWNSGTLTNGVRTFPSVRQSSGLYSLSSVVSVTSSSQPVTCNVAHPATNTKVDKTVAPSTCSKPTCPPPELLGGPSVFIFPPKPKDTLMISRTPEVTCVVVDVSQDDPEVQFTWYINNEQVRTARPPLREQQFNSTIRVVSTLPIAHQDWLRGKEFKCKVHNKALPAPIEKTISKARGQPLEPKVYTMGPPREELSSRSVSLTCMINGFYPSDISVEWEKNGKAEDNYKTTPAVLDSDGSYFLYSKLSVPTSEWQRGDVFTCSVMHEALHNHYTQKSISRSPGK
light: AVLTQTASPVSAAVGGTVTISCQSSQSVYNNKELSWFQQKPGQPPKLLISYASTLATGVPSRFKGSGSGTQFTLTISDLECDDAATYYCLGGYASTIDMWAFGGGTEVVVKGDPVAPTVLIFPPAADQVATGTVTIVCVANKYFPDVTVTWEVDGTTQTTGIENSKTPQNSADCTYNLSSTLTLTSTQYNSHKEYTCKVTQGTTSVVQSFNRGDC
As to B1, the Kd was 3.27 nM, the koff was 0.000393 s⁻¹ and the kon was 120000 M⁻¹ s⁻¹.

One may read the Kd as a measure of binding affinity in units of concentration. For orientation: koff means the rate constant with which the complex falls apart. The low end stands for slow dissociation, the high end for fast dissociation. Broadly, the kon is the rate constant with which the complex forms. A low value points to slower complex formation.
